Measured values as given in US20210196796A1 (SYNTHEKINE, published 2021).
Numbering of substitutions follows the chain as printed. In names and notes the source's numbering stands.

T1: orthogonal hCD122 receptor (hoRb), hCD122 with H133D and Y134F (human, UniProt P14784 27-550)
T1 sequence: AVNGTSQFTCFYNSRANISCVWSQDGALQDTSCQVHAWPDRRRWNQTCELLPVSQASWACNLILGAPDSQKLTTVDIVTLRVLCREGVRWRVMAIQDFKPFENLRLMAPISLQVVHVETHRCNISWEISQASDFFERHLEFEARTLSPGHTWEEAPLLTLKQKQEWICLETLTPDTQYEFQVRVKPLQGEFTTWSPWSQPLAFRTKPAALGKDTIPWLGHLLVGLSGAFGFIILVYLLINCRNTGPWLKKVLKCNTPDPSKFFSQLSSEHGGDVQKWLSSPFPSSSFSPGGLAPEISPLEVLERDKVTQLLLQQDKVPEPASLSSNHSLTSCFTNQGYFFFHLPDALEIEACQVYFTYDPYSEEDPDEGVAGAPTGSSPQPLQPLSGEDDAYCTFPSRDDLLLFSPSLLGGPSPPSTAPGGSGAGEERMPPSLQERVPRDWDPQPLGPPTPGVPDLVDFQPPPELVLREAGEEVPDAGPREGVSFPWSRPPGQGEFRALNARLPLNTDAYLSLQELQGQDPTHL

B1: L18E, SQVLKA (ligand)
chain: APTSSSTKKTQLQLSQLEVLLKAILNGINNYKNPKLTRMLTFKFYMPKKATELKHLQCLEEELKPLEEVLNLAQSKNFHLRPRDLISNINVIVLELKGSETTFMCEYADETATIVEFLNRWITFCQSIISTLT
B2: L18W, SQVLKA (ligand)
chain: B1 chain with E18W
B3: L18K, SQVLKA (ligand)
chain: B1 chain with E18K
B4: T3C, SQVLKA (ligand)
chain: B1 chain with T3C, E18L
B5: L18S, SQVLKA (ligand)
chain: B1 chain with E18S
B6: L18Q, SQVLKA (ligand)
chain: B1 chain with E18Q

Molecular target: T1, orthogonal hCD122 receptor (hoRb), …
Test: cell-based or functional assay
Throughout, for Relative Proliferation Fold Change 3F8 1:10: reference of the scale not given here.
Throughout, for Relative Proliferation Fold Change 3F8 1:2: reference of the scale not given here.
Throughout, for Relative Proliferation Fold Change 3F8 1:50: reference of the scale not given here.
Throughout, for Relative Proliferation Fold Change NKL 1:10: reference of the scale not given here.
Throughout, for Relative Proliferation Fold Change NKL 1:2: reference of the scale not given here.
Throughout, for Relative Proliferation Fold Change NKL 1:50: reference of the scale not given here.

NKL Ortho Proliferation Signal 1:2 | NKL Ortho Proliferation Signal 1:10 | NKL Ortho Proliferation Signal 1:50 | Relative Proliferation Fold Change NKL 1:2 | Relative Proliferation Fold Change NKL 1:10 | Relative Proliferation Fold Change NKL 1:50 | Binder
8260 | 9060 | 8120 | 0.57 fold | 0.56 fold | 0.51 fold | B1
18700 | 17000 | 10700 | 1.56 fold | 1.1 fold | 0.71 fold | B2
22200 | 20200 | 11500 | 1.56 fold | 1.21 fold | 0.76 fold | B3
60600 | 70800 | 35300 | 4.54 fold | 4.16 fold | 2.06 fold | B4
27200 | 21500 | 11500 | 2.4 fold | 1.56 fold | 0.85 fold | B5
47500 | 41200 | 21400 | 3.93 fold | 2.5 fold | 1.41 fold | B6

Molecular target: T1, orthogonal hCD122 receptor (hoRb), …
Test: cell-based or functional assay
Remark: another data set of the same source

3F8 Ortho Proliferation Signal 1:2 | 3F8 Ortho Proliferation Signal 1:10 | 3F8 Ortho Proliferation Signal 1:50 | Relative Proliferation Fold Change 3F8 1:2 | Relative Proliferation Fold Change 3F8 1:10 | Relative Proliferation Fold Change 3F8 1:50 | Binder
6090 cts/min | 2350 cts/min | 1980 cts/min | 9.99 fold | 0.93 fold | 0.77 fold | B1
36800 cts/min | 32800 cts/min | 9570 cts/min | 138 fold | 43.1 fold | 12.7 fold | B2
45400 cts/min | 42800 cts/min | 20400 cts/min | 162 fold | 49.6 fold | 14.6 fold | B3
33100 cts/min | 33700 cts/min | 14600 cts/min | 34.9 fold | 12.8 fold | 12 fold | B4
43300 cts/min | 48600 cts/min | 23600 cts/min | 185 fold | 89 fold | 41.9 fold | B5
40800 cts/min | 57200 cts/min | 44700 cts/min | 111 fold | 80.8 fold | 47.2 fold | B6
